What all share (assay): IEDB peptide-MHC binding, purified MHC/competitive/radioactivity; filed as Kd, often an IC50 or EC50 that approximates it; ≥ and ≤ were set here for values at or beyond the usual limits of such assays
For experiment [1], the target named is HLA-A*68:01.
The target in experiment [2] is HLA-A*03:01.
In experiment [3] the target is HLA-A*33:01.
Experiment [4] concerns the target HLA-A*31:01.
Experiment [5] addresses HLA-A*11:01.
Where [6] appears, read: source organism: Lassa virus Josiah.
The mark [7] stands for this setting: source organism: Mammarenavirus juninense.
Where [8] appears, read: source organism: Vaccinia virus WR.
The mark [9] stands for this setting: source organism: Vaccinia virus Copenhagen.
Where [10] appears, read: source organism: SARS coronavirus Tor2.
The mark [11] stands for this setting: source organism: Mammarenavirus brazilense.
Where [12] appears, read: source organism: Mammarenavirus whitewaterense.
Setting [13] is: source organism: Mammarenavirus lassaense.

A word on the Kd: it is the constant that tells how readily two partners part at equilibrium.

For MLQKEYMER, the equilibrium dissociation constant (Kd) in experiment [1] (setting [6]) was 33.3 nM; in experiment [2] (setting [6]), 11000 nM; in experiment [3] (setting [6]), 193 nM; in experiment [4] (setting [6]) it was 100 nM; in experiment [5] (setting [6]), 1360 nM.
For MRYTCLNSEK, the equilibrium dissociation constant (Kd) in experiment [1] (setting [7]) is 10100 nM; in experiment [2] (setting [7]), 283 nM; in experiment [3] (setting [7]), 6780 nM; in experiment [4] (setting [7]), 5030 nM; in experiment [5] (setting [7]), not below 49100 nM.
Regarding NITLKIIETY, the Kd in experiment [1] (setting [8]) was 444 nM; in experiment [2] (setting [8]), not below 70100 nM; in experiment [3] (setting [8]), not below 20700 nM; in experiment [4] (setting [8]), 1210 nM; in experiment [5] (setting [8]), 414 nM.
Consider NLFSKNILKY, for which the Kd in experiment [1] (setting [8]) is 8770 nM; in experiment [2] (setting [8]), 656 nM; in experiment [3] (setting [8]), not below 70000 nM; in experiment [4] (setting [8]), not below 70000 nM; in experiment [5] (setting [8]) it was 16300 nM.
Take NSCSIGNVTR: the Kd is 6.73 nM in experiment [1] (setting [8]); not below 70100 nM in experiment [2] (setting [8]); 16.1 nM in experiment [3] (setting [8]); 34.1 nM in experiment [4] (setting [8]); 890 nM in experiment [5] (setting [8]).
With QFKQDAKYSH, the Kd was not below 70100 nM in experiment [1] (setting [6]); not below 70000 nM in experiment [2] (setting [6]); 10600 nM in experiment [3] (setting [6]); 18200 nM in experiment [4] (setting [6]); not below 69700 nM in experiment [5] (setting [6]).
As for QFVDINRNNK, the Kd in experiment [1] (setting [8]) was determined as 171 nM; in experiment [2] (setting [8]), 1880 nM; in experiment [3] (setting [8]) it was 763 nM; in experiment [4] (setting [8]), 4.52 nM; in experiment [5] (setting [8]) it was 662 nM.
For the sequence QLMYALEPR, the Kd came out at 2950 nM in experiment [1] (setting [9]); 15200 nM in experiment [2] (setting [9]); 17300 nM in experiment [3] (setting [9]); 12800 nM in experiment [4] (setting [9]); 2460 nM in experiment [5] (setting [9]).
On to QLPQGTTLPK, for which the Kd in experiment [1] (setting [10]) was 317 nM; in experiment [2] (setting [10]), 52.5 nM; in experiment [3] (setting [10]), not below 37000 nM; in experiment [4] (setting [10]), 8640 nM; in experiment [5] (setting [10]) it was 396 nM.
With QTQTYNIGK, the Kd in experiment [1] (setting [8]) was 8.83 nM; in experiment [2] (setting [8]), 143 nM; in experiment [3] (setting [8]), 2620 nM; in experiment [4] (setting [8]), 316 nM; in experiment [5] (setting [8]), 7.03 nM.
Turning to RAIMATIQR, the Kd in experiment [1] (setting [10]) was 72 nM; in experiment [2] (setting [10]), 2720 nM; in experiment [3] (setting [10]) it was 7140 nM; in experiment [4] (setting [10]) it was 45.7 nM; in experiment [5] (setting [10]), 90.9 nM.
On to RALKYDFNH, for which the Kd was determined as 6970 nM in experiment [1] (setting [11]); 5700 nM in experiment [2] (setting [11]); 7170 nM in experiment [3] (setting [11]); 65.2 nM in experiment [4] (setting [11]); 4370 nM in experiment [5] (setting [11]).
Turning to RLLHCVTESY, the Kd in experiment [1] (setting [8]) worked out at 598 nM; in experiment [2] (setting [8]) it was 72.7 nM; in experiment [3] (setting [8]), 6940 nM; in experiment [4] (setting [8]) it was 31.3 nM; in experiment [5] (setting [8]), 40.2 nM.
Consider RNPYENVLYK, for which the Kd in experiment [1] (setting [12]) was 3490 nM; in experiment [2] (setting [12]), 2310 nM; in experiment [3] (setting [12]), not below 70000 nM; in experiment [4] (setting [12]), not below 28800 nM; in experiment [5] (setting [12]), 1500 nM.
SICSTMTNR: the Kd in experiment [1] (setting [10]) stood at 46.4 nM; in experiment [2] (setting [10]), 864 nM; in experiment [3] (setting [10]) it was 42 nM; in experiment [4] (setting [10]) it was 1.08 nM; in experiment [5] (setting [10]), 13 nM.
Take SIPISELSR: the Kd in experiment [1] (setting [8]) was 11.2 nM; in experiment [2] (setting [8]), not below 24600 nM; in experiment [3] (setting [8]), 9740 nM; in experiment [4] (setting [8]), 3720 nM; in experiment [5] (setting [8]), 125 nM.
For SLFKNVRLLK, in that order: 335 nM, 5.13 nM, 2210 nM, 118 nM and 13.2 nM.
For SLLKTHRMCK, the Kd in experiment [1] (setting [10]) is not below 23300 nM; in experiment [2] (setting [10]) it was 13.4 nM; in experiment [3] (setting [10]), 6920 nM; in experiment [4] (setting [10]), 452 nM; in experiment [5] (setting [10]), 39 nM.
In the case of STTDAEACY, the Kd is 163 nM in experiment [1] (setting [8]); not below 47800 nM in experiment [2] (setting [8]); 17400 nM in experiment [3] (setting [8]); not below 75400 nM in experiment [4] (setting [8]); 432 nM in experiment [5] (setting [8]).
For TAIKEVVMAY, in that order: 317 nM, 4430 nM, not below 21400 nM, 4280 nM and 1110 nM.
With TCQGSEDIK, the Kd in experiment [1] (setting [13]) is not below 30000 nM; in experiment [2] (setting [13]), not below 78000 nM; in experiment [3] (setting [13]), not below 77700 nM; in experiment [4] (setting [13]), not below 61300 nM; in experiment [5] (setting [13]), 15100 nM.
As to TLFIDRGSIK, the Kd in experiment [1] (setting [9]) came out at 40.9 nM; in experiment [2] (setting [9]) it was 12.4 nM; in experiment [3] (setting [9]) it was 4650 nM; in experiment [4] (setting [9]) it was 8010 nM; in experiment [5] (setting [9]), 32.4 nM.
Turning to TMRIYCSLFK, the Kd came out at 26.7 nM in experiment [1] (setting [8]); 1.18 nM in experiment [2] (setting [8]); 93.5 nM in experiment [3] (setting [8]); 1.78 nM in experiment [4] (setting [8]); 0.21 nM in experiment [5] (setting [8]).
